Test results: US20240261333A1 (published 2024)

Columns and labels:
Experiment in all cases: co-IP with anti-FLAG, C-FLAG B3GNT2, mass spectrometry
LGALS7B = molecular target: T1, LGALS7B (human, UniProt P47929 1-136)
T1 construct: also called NP_001035972.1

DDX1 = molecular target: T2, DDX1 (human, UniProt Q92499 1-740)
T2 construct: also called NP_004930.1
T2 sequence (looked up): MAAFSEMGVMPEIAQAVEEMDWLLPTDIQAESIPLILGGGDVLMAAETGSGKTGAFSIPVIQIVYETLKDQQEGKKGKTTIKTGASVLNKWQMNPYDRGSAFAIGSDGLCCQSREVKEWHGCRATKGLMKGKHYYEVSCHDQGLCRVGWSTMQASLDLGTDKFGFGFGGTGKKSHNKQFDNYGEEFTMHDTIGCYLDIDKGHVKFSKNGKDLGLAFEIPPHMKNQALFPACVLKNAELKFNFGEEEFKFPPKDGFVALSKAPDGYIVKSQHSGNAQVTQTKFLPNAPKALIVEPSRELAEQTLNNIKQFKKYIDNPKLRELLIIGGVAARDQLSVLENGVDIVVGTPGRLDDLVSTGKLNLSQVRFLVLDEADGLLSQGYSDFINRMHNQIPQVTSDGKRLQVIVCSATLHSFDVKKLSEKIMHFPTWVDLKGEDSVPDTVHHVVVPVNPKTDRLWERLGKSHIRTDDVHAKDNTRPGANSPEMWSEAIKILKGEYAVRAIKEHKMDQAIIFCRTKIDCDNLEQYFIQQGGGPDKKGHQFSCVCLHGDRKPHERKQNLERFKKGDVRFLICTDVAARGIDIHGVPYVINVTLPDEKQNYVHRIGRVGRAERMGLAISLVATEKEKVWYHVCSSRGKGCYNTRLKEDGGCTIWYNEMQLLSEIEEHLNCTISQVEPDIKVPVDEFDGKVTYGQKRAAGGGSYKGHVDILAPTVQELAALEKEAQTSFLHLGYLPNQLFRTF

CHCHD3 = molecular target: T3, CHCHD3 (human, UniProt Q9NX63 2-227, limits assumed)
T3 construct: also called NP_001304106.1 (+1)
T3 sequence (looked up): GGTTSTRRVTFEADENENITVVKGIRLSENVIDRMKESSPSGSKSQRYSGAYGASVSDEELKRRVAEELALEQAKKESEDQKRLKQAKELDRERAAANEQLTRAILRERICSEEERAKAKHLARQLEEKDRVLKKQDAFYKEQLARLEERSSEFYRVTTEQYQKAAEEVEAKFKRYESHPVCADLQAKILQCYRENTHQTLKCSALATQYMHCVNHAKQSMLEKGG

S100A7 = molecular target: T4, S100A7 (human, UniProt P31151 2-101)
T4 construct: also called NP_002954.2
T4 sequence (looked up): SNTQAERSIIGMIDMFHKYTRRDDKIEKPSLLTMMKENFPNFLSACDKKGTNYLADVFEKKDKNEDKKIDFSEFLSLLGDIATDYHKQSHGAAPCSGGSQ

RPL17 = RPL17 (human, UniProt P18621 2-184)
RPS20 = RPS20 (human, UniProt P60866 2-119)
DDX17 = molecular target: T5, DDX17 (human, UniProt Q92841 1-729, limits assumed)
T5 construct: also called NP_001091974.1

HBB = molecular target: T6, HBB (human, UniProt P68871 2-147)
T6 construct: also called NP_000509.1
T6 sequence (P68871 2-147 limits assumed): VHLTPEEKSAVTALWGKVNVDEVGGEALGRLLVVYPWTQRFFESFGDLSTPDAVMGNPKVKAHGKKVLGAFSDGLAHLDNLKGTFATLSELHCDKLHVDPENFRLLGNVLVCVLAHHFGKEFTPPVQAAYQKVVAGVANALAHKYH

T1 sequence (P47929 whole entry): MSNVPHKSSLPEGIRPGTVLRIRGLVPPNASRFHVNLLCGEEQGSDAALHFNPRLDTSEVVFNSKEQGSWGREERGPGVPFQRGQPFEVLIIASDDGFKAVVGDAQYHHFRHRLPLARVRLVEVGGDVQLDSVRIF
T5 sequence (Q92841 whole entry): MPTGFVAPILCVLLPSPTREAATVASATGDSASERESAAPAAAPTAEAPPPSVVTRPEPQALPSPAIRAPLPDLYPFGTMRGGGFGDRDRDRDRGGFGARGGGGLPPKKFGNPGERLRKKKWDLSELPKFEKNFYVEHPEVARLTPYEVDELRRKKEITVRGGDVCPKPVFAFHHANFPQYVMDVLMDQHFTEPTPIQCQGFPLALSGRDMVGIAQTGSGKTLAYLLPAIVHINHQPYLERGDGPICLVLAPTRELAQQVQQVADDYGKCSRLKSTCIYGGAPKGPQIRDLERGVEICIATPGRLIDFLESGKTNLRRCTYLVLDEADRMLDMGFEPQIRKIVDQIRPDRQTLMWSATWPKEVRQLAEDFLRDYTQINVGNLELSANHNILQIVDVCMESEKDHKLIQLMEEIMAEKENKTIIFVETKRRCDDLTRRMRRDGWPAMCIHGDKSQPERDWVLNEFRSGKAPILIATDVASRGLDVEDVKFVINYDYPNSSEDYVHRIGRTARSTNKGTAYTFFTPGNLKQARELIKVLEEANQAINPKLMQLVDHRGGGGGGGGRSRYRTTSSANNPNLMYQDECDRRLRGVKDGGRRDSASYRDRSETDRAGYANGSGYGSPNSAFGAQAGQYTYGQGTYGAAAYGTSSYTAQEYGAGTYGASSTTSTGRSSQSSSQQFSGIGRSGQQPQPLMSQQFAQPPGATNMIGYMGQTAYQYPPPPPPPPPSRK

B1: C-terminal FLAG tagged B3GNT2 (enzyme, human, UniProt Q9NY97 1-397, looked up)
chain: MSVGRRRIKLLGILMMANVFIYFIMEVSKSSSQEKNGKGEVIIPKEKFWKISTPPEAYWNREQEKLNRQYNPILSMLTNQTGEAGRLSNISHLNYCEPDLRVTSVVTGFNNLPDRFKDFLLYLRCRNYSLLIDQPDKCAKKPFLLLAIKSLTPHFARRQAIRESWGQESNAGNQTVVRVFLLGQTPPEDNHPDLSDMLKFESEKHQDILMWNYRDTFFNLSLKEVLFLRWVSTSCPDTEFVFKGDDDVFVNTHHILNYLNSLSKTKAKDLFIGDVIHNAGPHRDKKLKYYIPEVVYSGLYPPYAGGGGFLYSGHLALRLYHITDQVHLYPIDDVYTGMCLQKLGLVPEKHKGFRTFDIEEKNKNNICSYVDLMLVHSRKPQEMIDIWSQLQSAHLKC
notes: FLAG-tagged ORF overexpressed in cells; pulled down from lysate with mouse anti-FLAG; also called C-FLAG B3GNT2; C-term flag; not shown: C-terminal FLAG tag
co-IP mass spectrometry count (LGALS7B): 4 | co-IP mass spectrometry count (DDX1): 4 | co-IP mass spectrometry count (CHCHD3): 15 | co-IP mass spectrometry count (S100A7): 5

B2: C-terminal FLAG tagged B3GNT2 (enzyme, human, UniProt Q9NY97 1-397, looked up)
chain: MSVGRRRIKLLGILMMANVFIYFIMEVSKSSSQEKNGKGEVIIPKEKFWKISTPPEAYWNREQEKLNRQYNPILSMLTNQTGEAGRLSNISHLNYCEPDLRVTSVVTGFNNLPDRFKDFLLYLRCRNYSLLIDQPDKCAKKPFLLLAIKSLTPHFARRQAIRESWGQESNAGNQTVVRVFLLGQTPPEDNHPDLSDMLKFESEKHQDILMWNYRDTFFNLSLKEVLFLRWVSTSCPDTEFVFKGDDDVFVNTHHILNYLNSLSKTKAKDLFIGDVIHNAGPHRDKKLKYYIPEVVYSGLYPPYAGGGGFLYSGHLALRLYHITDQVHLYPIDDVYTGMCLQKLGLVPEKHKGFRTFDIEEKNKNNICSYVDLMLVHSRKPQEMIDIWSQLQSAHLKC
notes: FLAG-tagged ORF overexpressed in A375 cells; pulled down from the lysate with mouse anti-FLAG; also called C-FLAG B3GNT2; C-term flag; not shown: C-terminal FLAG tag
co-IP/MS count, C-term flag (RPL17): 0 | co-IP/MS count, C-term flag (RPS20): 7 | co-IP/MS count, C-term flag (DDX17): 30 | co-IP/MS count, C-term flag (HBB): 0
